Experimental data: paper PMC4529235

Experiments:
[1] = target: trimeric ASIC1a concatemeric fusion protein 3_(ASIC)FP (H8-(hA1a-N1Q7)2-hA1a) (human) (UniProt P78348); experiment: cross-linking; BMOE (0.5 or 2 mM) at the cell surface of Xenopus oocytes and CHO cells before lysis, cell-surface biotinylated fractions, SDS-PAGE under reducing conditions, anti-ASIC1a western blot; band intensities pooled over oocytes and CHO cells
[2] = target: trimeric ASIC1a concatemeric fusion protein 3_(ASIC)FP (H8-(hA1a-N1Q7)2-hA1a) (human) (UniProt P78348); experiment: cross-linking; oxidation with 0.3 mM NaTT (20 min, 4°C) of Ni-NTA affinity-purified fractions from Xenopus oocytes and CHO cells, on the beads; non-reducing SDS-PAGE, anti-ASIC1a western blot

percent of ASIC1a that migrates as the tetramer [1]: > 60%
percent of ASIC1a that migrates as the tetramer [2]: > 60%
Substance: single ASIC1a subunit available in cells expressing 3_(ASIC)FP
